Data on 3 molecules can be found in paper PMC3600089 (ACS chemical biology, 2012).

The chains are these.
B1: GST-TACC3-CT (murine TACC3 residues 561-631) (domain or fragment)
chain: not shown
B2: GST-TACC3-CT E629A (domain or fragment)
chain: not shown
B3: untagged ARNT PAS-B (domain or fragment)
chain: not shown

The target in assay [1] is T1, His-ARNT PAS-B (human ARNT residues 356-470) (human, UniProt P27540 356-470). Briefly: pull-down.
Assay [2] has as its target His-ARNT2 PAS-B (human ARNT2 residues 330-444) (human, UniProt Q9HBZ2 330-444). Briefly: pull-down.
The target in the next assay is ARNT2 PAS-B E372A (human, UniProt Q9HBZ2 330-444, E372A). Briefly: pull-down.
Another assay concerns the target ARNT2 PAS-B K391A (human, UniProt Q9HBZ2 330-444, K391A). Briefly: pull-down.
For assay [3], the target named is T1, His-ARNT PAS-B (human ARNT residues …). In words: AlphaScreen or HTRF. Background: Alpha assays give light when donor and acceptor beads are brought close together.
For the assay “GST-TACC3-CT E629A”, the target named is B2. In words: AlphaScreen or HTRF.

In the case of B1, the binding result (in assay [1]; in assay [2]; with ARNT2 PAS-B E372A; with ARNT2 PAS-B K391A) was “binds” each time.
For the molecule B2, in assay [3], the binding result is “binds”.
For the molecule B3, the IC50 (usually the concentration that inhibits the measured activity by half) in the assay with GST-TACC3-CT E629A fell in the range of 2000 to 3000 nM.
